# Test results published in patent US20260184777A1 (BEIJING SUNGEN BIOMEDICAL TECHNOLOGY, published 2026).
# T1: human S100A8/A9 heterodimeric antigen, His-tagged (hS100A8/A9-His) (human, UniProt P05109 1-93; P06702 1-114)
# T1 sequence 1: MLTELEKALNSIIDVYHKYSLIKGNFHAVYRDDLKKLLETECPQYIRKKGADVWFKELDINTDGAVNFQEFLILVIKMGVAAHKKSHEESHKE
# T1 sequence 2: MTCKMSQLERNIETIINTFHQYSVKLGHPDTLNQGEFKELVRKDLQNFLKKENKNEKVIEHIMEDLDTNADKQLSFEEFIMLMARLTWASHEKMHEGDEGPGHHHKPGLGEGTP
# Target: T1, human S100A8/A9 heterodimeric antigen, …
# Assay: cell-based or functional assay
row,"IC50, inhibition of IL-6 release from hS100A8/A9-activated human PBMCs",Binder
1,0.199 µg/mL,"CM-2 (antibody, human IgG4 S228P, lambda, V domains shown) VH: not shown VL: SYELTQPPSVSVAPGQTARITCSGDALGDKYASWYQQKPGQAPVLVIYEDSKRPSGIPERFSGSNSGNTATLTISGTQAEDEADYYCQSNDADSVWVFGGGTKLTVLG"
2,0.477 µg/mL,"CM-15 (antibody, human IgG4 S228P, lambda, V domains shown) VH: not shown VL: SYELTQPPSVSVAPGQTARITCSGDALGDKYASWYQQKPGQAPVLVIYEDSKRPSGIPERFSGSNSGNTATLTISGTQAEDEADYYCQSNDADSVWVFGGGTKLTVLG"
3,0.029 µg/mL,"CM-3 (antibody, human IgG4 S228P, lambda, V domains shown) VH: not shown VL: SYELTQPPSVSVAPGQTARITCSGDALGDKYASWYQQKPGQAPVLVIYEDSKRPSGIPERFSGSNSGNTATLTISGTQAEDEADYYCQSNDADSVWVFGGGTKLTVLG"
4,0.619 µg/mL,"CM-19 (antibody, human IgG4 S228P, lambda, V domains shown) VH: not shown VL: SYELTQPPSVSVAPGQTARITCSGDALGDKYASWYQQKPGQAPVLVIYEDSKRPSGIPERFSGSNSGNTATLTISGTQAEDEADYYCQSNDADSVWVFGGGTKLTVLG"
5,0.43 µg/mL,"CM-20 (antibody, human IgG4 S228P, lambda, V domains shown) VH: not shown VL: SYELTQPPSVSVAPGQTARITCSGDALGDKYASWYQQKPGQAPVLVIYEDSKRPSGIPERFSGSNSGNTATLTISGTQAEDEADYYCQSNDADSVWVFGGGTKLTVLG"
6,0.109 µg/mL,"CM-18 (antibody, human IgG4 S228P, lambda, V domains shown) VH: not shown VL: SYELTQPPSVSVAPGQTARITCSGDALGDKYASWYQQKPGQAPVLVIYEDSKRPSGIPERFSGSNSGNTATLTISGTQAEDEADYYCQSNDADSVWVFGGGTKLTVLG"
7,0.488 µg/mL,"CM-6 (antibody, human IgG4 S228P, lambda, V domains shown) VH: not shown VL: SYELTQPPSVSVAPGQTARITCSGDALGDKYASWYQQKPGQAPVLVIYEDSKRPSGIPERFSGSNSGNTATLTISGTQAEDEADYYCQSNDADSVWVFGGGTKLTVLG"
8,0.471 µg/mL,"CM-25 (antibody, human IgG4 S228P, lambda, V domains shown) VH: not shown VL: SYELTQPPSVSVAPGQTARITCSGDALGDKYASWYQQKPGQAPVLVIYEDSKRPSGIPERFSGSNSGNTATLTISGTQAEDEADYYCQSNDADSVWVFGGGTKLTVLG"
9,0.168 µg/mL,"CM-26 (antibody, human IgG4 S228P, lambda, V domains shown) VH: not shown VL: SYELTQPPSVSVAPGQTARITCSGDALGDKFASWYQQKPGQAPVLVIYEDSKRPSGIPERFSGSNSGNTATLTISGTQAEDEADYYCQSNDADSVWVFGGGTKLTVLG"
10,0.04 µg/mL,"CM-4 (antibody, human IgG4 S228P, lambda, V domains shown) VH: not shown VL: SYELTQPPSVSVAPGQTARITCSGDALGDKYASWYQQKPGQAPVLVIYEDSKRPSGIPERFSGSNSGNTATLTISGTQAEDEADYYCQSNDADSVWVFGGGTKLTVLG"
11,0.457 µg/mL,"CM-16 (antibody, human IgG4 S228P, lambda, V domains shown) VH: not shown VL: SYELTQPPSVSVAPGQTARITCSGDALGDKYASWYQQKPGQAPVLVIYEDSKRPSGIPERFSGSNSGNTATLTISGTQAEDEADYYCQSNDADSVWVFGGGTKLTVLG"
12,2.79 µg/mL,"CM-14 (antibody, human IgG4 S228P, lambda, V domains shown) VH: not shown VL: SYELTQPPSVSVAPGQTARITCSGDALGDKYASWYQQKPGQAPVLVIYEDSKRPSGIPERFSGSNSGNTATLTISGTQAEDEADYYCQSNDADSVWVFGGGTKLTVLG"
13,0.038 µg/mL,"CM-11 (antibody, human IgG4 S228P, lambda, V domains shown) VH: not shown VL: SYELTQPPSVSVAPGQTARITCSGDALGDKYASWYQQKPGQAPVLVIYEDSKRPSGIPERFSGSNSGNTATLTISGTQAEDEADYYCQSNDADSVWVFGGGTKLTVLG"
14,0.01 µg/mL,"CM-21 (antibody, human IgG4 S228P, lambda, V domains shown) VH: not shown VL: SYELTQPPSVSVAPGQTARITCSGDALGDKYASWYQQKPGQAPVLVIYEDSKRPSGIPERFSGSNSGNTATLTISGTQAEDEADYYCQSNDADSVWVFGGGTKLTVLG"
15,0.12 µg/mL,"CM-7 (antibody, human IgG4 S228P, lambda, V domains shown) VH: not shown VL: SYELTQPPSVSVAPGQTARITCSGDALGDKYASWYQQKPGQAPVLVIYEDSKRPSGIPERFSGSNSGNTATLTISGTQAEDEADYYCQSNDADSVWVFGGGTKLTVLG"
16,0.047 µg/mL,"CM-13 (antibody, human IgG4 S228P, lambda, V domains shown) VH: not shown VL: SYELTQPPSVSVAPGQTARITCSGDALGDKYASWYQQKPGQAPVLVIYEDSKRPSGIPERFSGSNSGNTATLTISGTQAEDEADYYCQSNDADSVWVFGGGTKLTVLG"
17,0.162 µg/mL,"CM-22 (antibody, human IgG4 S228P, lambda, V domains shown) VH: not shown VL: SYELTQPPSVSVAPGQTARITCSGDALGDKYASWYQQKPGQAPVLVIYEDSKRPSGIPERFSGSNSGNTATLTISGTQAEDEADYYCQSNDADSVWVFGGGTKLTVLG"
18,1.56 µg/mL,"CM-9 (antibody, human IgG4 S228P, lambda, V domains shown) VH: not shown VL: SYELTQPPSVSVAPGQTARITCSGDALGDKYASWYQQKPGQAPVLVIYEDSKRPSGIPERFSGSNSGNTATLTISGTQAEDEADYYCQSNDADSVWVFGGGTKLTVLG"
19,0.32 µg/mL,"CM-17 (antibody, human IgG4 S228P, lambda, V domains shown) VH: not shown VL: SYELTQPPSVSVAPGQTARITCSGDALGDKYASWYQQKPGQAPVLVIYEDSKRPSGIPERFSGSNSGNTATLTISGTQAEDEADYYCQSNDADSVWVFGGGTKLTVLG"
20,0.436 µg/mL,"CM-5 (antibody, human IgG4 S228P, lambda, V domains shown) VH: not shown VL: SYELTQPPSVSVAPGQTARITCSGDALGDKYASWYQQKPGQAPVLVIYEDSKRPSGIPERFSGSNSGNTATLTISGTQAEDEADYYCQSNDADSVWVFGGGTKLTVLG"
21,0.047 µg/mL,"CM-12 (antibody, human IgG4 S228P, lambda, V domains shown) VH: not shown VL: SYELTQPPSVSVAPGQTARITCSGDALGDKYASWYQQKPGQAPVLVIYEDSKRPSGIPERFSGSNSGNTATLTISGTQAEDEADYYCQSNDADSVWVFGGGTKLTVLG"
22,0.438 µg/mL,"CM-10 (antibody, human IgG4 S228P, lambda, V domains shown) VH: not shown VL: SYELTQPPSVSVAPGQTARITCSGDALGDKYASWYQQKPGQAPVLVIYEDSKRPSGIPERFSGSNSGNTATLTISGTQAEDEADYYCQSNDADSVWVFGGGTKLTVLG"
23,0.67 µg/mL,"CM-24 (antibody, human IgG4 S228P, lambda, V domains shown) VH: not shown VL: SYELTQPPSVSVAPGQTARITCSGDALGDKYASWYQQKPGQAPVLVIYEDSKRPSGIPERFSGSNSGNTATLTISGTQAEDEADYYCQSNDADSVWVFGGGTKLTVLG"
24,0.024 µg/mL,"CM-23 (antibody, human IgG4 S228P, lambda, V domains shown) VH: not shown VL: SYELTQPPSVSVAPGQTARITCSGDALGDKYASWYQQKPGQAPVLVIYEDSKRPSGIPERFSGSNSGNTATLTISGTQAEDEADYYCQSNDADSVWVFGGGTKLTVLG"
25,0.458 µg/mL,"CM-8 (antibody, human IgG4 S228P, lambda, V domains shown) VH: not shown VL: SYELTQPPSVSVAPGQTARITCSGDALGDKYASWYQQKPGQAPVLVIYEDSKRPSGIPERFSGSNSGNTATLTISGTQAEDEADYYCQSNDADSVWVFGGGTKLTVLG"

# Target: T1, human S100A8/A9 heterodimeric antigen, …
# Assay: cell-based or functional assay
# Remark: another data set of the same source
row,"Relative IC50 (IC50 relative to CM-1), IL-6 release from hS100A8/A9-activated human PBMCs",Binder
1,0.986 relative to CM-1,"CM-116 (antibody, human IgG4 S228P, lambda, V domains shown) VH: EVQLVESGGGLVQPGGSLRLSCAASGFTFSDYAMSWVRQAPGKGLEWVSAISGSGGSTYYAASVKGRFTISRDNSKNTLYLQMNSLRAEDTAVYYCARKYRPSRVFDFWGQGTLVTVSS VL: SYELTQPPSVSVAPGQTARITCSGDALGDKYASWYQQKPGQAPVLVIYEDAKRPSGIPERFSGSNSGNTATLTISGTQAEDEADYYCQSNDADAWWVFGGGTKLTVLG"
2,1.63 relative to CM-1,"CM-118 (antibody, human IgG4 S228P, lambda, V domains shown) VH: EVQLVESGGGLVQPGGSLRLSCAASGFTFSDYAMSWVRQAPGKGLEWVSAISGSGGSTYYAASVKGRFTISRDNSKNTLYLQMNSLRAEDTAVYYCARKYRPSRVFDHWGQGTLVTVSS VL: SYELTQPPSVSVAPGQTARITCSGDALGDKYASWYQQKPGQAPVLVIYEDAKRPSGIPERFSGSNSGNTATLTISGTQAEDEADYYCQSNDADAWWVFGGGTKLTVLG"
3,0.367 relative to CM-1,"CM-117 (antibody, human IgG4 S228P, lambda, V domains shown) VH: EVQLVESGGGLVQPGGSLRLSCAASGFTFSDYAMSWVRQAPGKGLEWVSAISGSGGSTYYAASVKGRFTISRDNSKNTLYLQMNSLRAEDTAVYYCARKYRPSRVFDCWGQGTLVTVSS VL: SYELTQPPSVSVAPGQTARITCSGDALGDKYASWYQQKPGQAPVLVIYEDAKRPSGIPERFSGSNSGNTATLTISGTQAEDEADYYCQSNDADAWWVFGGGTKLTVLG"
4,1.37 relative to CM-1,"CM-119 (antibody, human IgG4 S228P, lambda, V domains shown) VH: EVQLVESGGGLVQPGGSLRLSCAASGFTFSDYAMSWVRQAPGKGLEWVSAISGSGGSTYYAASVKGRFTISRDNSKNTLYLQMNSLRAEDTAVYYCARKYRPSRVFDYWGQGTLVTVSS VL: SYELTQPPSVSVAPGQTARITCSGDALGDKYASWYQQKPGQAPVLVIYEDAKRPSGIPERFSGSNSGNTATLTISGTQAEDEADYYCQSNDADAWWVFGGGTKLTVLG"
